According to US20130022605A1:

Biological target: mouse TNFR1 on L929 cells (mouse) (UniProt P25118)
Assay: cell-based or functional assay

mouse TNFR1 on L929 cells (mouse), sequence (P25118 30-454): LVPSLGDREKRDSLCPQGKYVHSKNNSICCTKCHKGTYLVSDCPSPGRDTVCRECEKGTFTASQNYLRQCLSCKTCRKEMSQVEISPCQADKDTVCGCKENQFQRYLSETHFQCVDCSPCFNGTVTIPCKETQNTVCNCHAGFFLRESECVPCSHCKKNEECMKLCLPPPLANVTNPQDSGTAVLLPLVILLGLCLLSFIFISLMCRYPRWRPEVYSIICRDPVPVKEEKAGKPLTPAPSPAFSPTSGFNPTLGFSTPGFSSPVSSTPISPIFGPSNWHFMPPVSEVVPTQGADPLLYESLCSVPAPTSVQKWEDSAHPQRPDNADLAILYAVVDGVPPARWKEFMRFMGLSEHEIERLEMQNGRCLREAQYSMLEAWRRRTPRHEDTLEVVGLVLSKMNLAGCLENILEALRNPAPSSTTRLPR

Row | Substance | ND50, L929 cytotoxicity without TNF-α (agonism) [pM]
1 | anti-TNFR1 antibody AF-425-PB (R&D Systems) | 100
2 | anti-TNFR1 antibody MAB430 (R&D Systems) | 10000
